# B1: UBTF (protein, UniProt P17480 1-764, looked up)
# Nucleolar transcription …: MNGEADCPTDLEMAAPKGQDRWSQEDMLTLLECMKNNLPSNDSSKFKTTESHMDWEKVAFKDFSGDMCKLKWVEISNEVRKFRTLTELILDAQEHVKNPYKGKKLKKHPDFPKKPLTPYFRFFMEKRAKYAKLHPEMSNLDLTKILSKKYKELPEKKKMKYIQDFQREKQEFERNLARFREDHPDLIQNAKKSDIPEKPKTPQQLWYTHEKKVYLKVRPDATTKEVKDSLGKQWSQLSDKKRLKWIHKALEQRKEYEEIMRDYIQKHPELNISEEGITKSTLTKAERQLKDKFDGRPTKPPPNSYSLYCAELMANMKDVPSTERMVLCSQQWKLLSQKEKDAYHKKCDQKKKDYEVELLRFLESLPEEEQQRVLGEEKMLNINKKQATSPASKKPAQEGGKGGSEKPKRPVSAMFIFSEEKRRQLQEERPELSESELTRLLARMWNDLSEKKKAKYKAREAALKAQSERKPGGEREERGKLPESPKRAEEIWQQSVIGDYLARFKNDRVKALKAMEMTWNNMEKKEKLMWIKKAAEDQKRYERELSEMRAPPAATNSSKKMKFQGEPKKPPMNGYQKFSQELLSNGELNHLPLKERMVEIGSRWQRISQSQKEHYKKLAEEQQKQYKVHLDLWVKSLSPQDRAAYKEYISNKRKSMTKLRGPNPKSSRTTLQSKSESEEDDEEDEDDEDEDEEEEDDENGDSSEDGGDSSESSSEDESEDGDENEEDDEDEDDDEDDDEDEDNESEGSSSSSSSSGDSSDSDSN
# B2: TWIST2 (protein, UniProt Q8WVJ9 1-160, looked up)
# Twist-related protein 2: MEEGSSSPVSPVDSLGTSEEELERQPKRFGRKRRYSKKSSEDGSPTPGKRGKKGSPSAQSFEELQSQRILANVRERQRTQSLNEAFAALRKIIPTLPSDKLSKIQTLKLAARYIDFLYQVLQSDEMDNKMTSCSYVAHERLSYAFSVWRMEGAWSMSASH
# B3: USP22 (protein, UniProt Q9UPT9 1-525, looked up)
# Ubiquitin carboxyl-terminal …: MVSRPEPEGEAMDAELAVAPPGCSHLGSFKVDNWKQNLRAIYQCFVWSGTAEARKRKAKSCICHVCGVHLNRLHSCLYCVFFGCFTKKHIHEHAKAKRHNLAIDLMYGGIYCFLCQDYIYDKDMEIIAKEEQRKAWKMQGVGEKFSTWEPTKRELELLKHNPKRRKITSNCTIGLRGLINLGNTCFMNCIVQALTHTPLLRDFFLSDRHRCEMQSPSSCLVCEMSSLFQEFYSGHRSPHIPYKLLHLVWTHARHLAGYEQQDAHEFLIAALDVLHRHCKGDDNGKKANNPNHCNCIIDQIFTGGLQSDVTCQVCHGVSTTIDPFWDISLDLPGSSTPFWPLSPGSEGNVVNGESHVSGTTTLTDCLRRFTRPEHLGSSAKIKCSGCHSYQESTKQLTMKKLPIVACFHLKRFEHSAKLRRKITTYVSFPLELDMTPFMASSKESRMNGQYQQPTDSLNNDNKYSLFAVVNHQGTLESGHYTSFIRQHKDQWFKCDDAIITKASIKDVLDSEGYLLFYHKQFLEYE
# B4: TSHZ2 (protein, UniProt Q9NRE2 1-1034, looked up)
# Teashirt homolog 2: MPRRKQQAPKRAAGYAQEEQLKEEEEIKEEEEEEDSGSVAQLQGGNDTGTDEELETGPEQKGCFSYQNSPGSHLSNQDAENESLLSDASDQVSDIKSVCGRDASDKKAHTHVRLPNEAHNCMDKMTAVYANILSDSYWSGLGLGFKLSNSERRNCDTRNGSNKSDFDWHQDALSKSLQQNLPSRSVSKPSLFSSVQLYRQSSKMCGTVFTGASRFRCRQCSAAYDTLVELTVHMNETGHYQDDNRKKDKLRPTSYSKPRKRAFQDMDKEDAQKVLKCMFCGDSFDSLQDLSVHMIKTKHYQKVPLKEPVPTISSKMVTPAKKRVFDVNRPCSPDSTTGSFADSFSSQKNANLQLSSNNRYGYQNGASYTWQFEACKSQILKCMECGSSHDTLQQLTTHMMVTGHFLKVTSSASKKGKQLVLDPLAVEKMQSLSEAPNSDSLAPKPSSNSASDCTASTTELKKESKKERPEETSKDEKVVKSEDYEDPLQKPLDPTIKYQYLREEDLEDGSKGGGDILKSLENTVTTAINKAQNGAPSWSAYPSIHAAYQLSEGTKPPLPMGSQVLQIRPNLTNKLRPIAPKWKVMPLVSMPTHLAPYTQVKKESEDKDEAVKECGKESPHEEASSFSHSEGDSFRKSETPPEAKKTELGPLKEEEKLMKEGSEKEKPQPLEPTSALSNGCALANHAPALPCINPLSALQSVLNNHLGKATEPLRSPSCSSPSSSTISMFHKSNLNVMDKPVLSPASTRSASVSRRYLFENSDQPIDLTKSKSKKAESSQAQSCMSPPQKHALSDIADMVKVLPKATTPKPASSSRVPPMKLEMDVRRFEDVSSEVSTLHKRKGRQSNWNPQHLLILQAQFASSLFQTSEGKYLLSDLGPQERMQISKFTGLSMTTISHWLANVKYQLRKTGGTKFLKNMDKGHPIFYCSDCASQFRTPSTYISHLESHLGFQMKDMTRLSVDQQSKVEQEISRVSSAQRSPETIAAEEDTDSKFKCKLCCRTFVSKHAVKLHLSKTHSKSPEHHSQFVTDVDEE
# B5: TULP2 (protein, UniProt O00295 1-520, looked up)
# Tubby-related protein 2: MSQDNDTLMRDILGHELAAMRLQKLEQQRRLFEKKQRQKRQELLMVQANPDASPWLWRSCLREERLLGDRGLGNPFLRKKVSEAHLPSGIHSALGTVSCGGDGRGERGLPTPRTEAVFRNLGLQSPFLSWLPDNSDAELEEVSVENGSVSPPPFKQSPRIRRKGWQAHQRPGTRAEGESDSQDMGDAHKSPNMGPNPGMDGDCVYENLAFQKEEDLEKKREASESTGTNSSAAHNEELSKALKGEGGTDSDHMRHEASLAIRSPCPGLEEDMEAYVLRPALPGTMMQCYLTRDKHGVDKGLFPLYYLYLETSDSLQRFLLAGRKRRRSKTSNYLISLDPTHLSRDGDNFVGKVRSNVFSTKFTIFDNGVNPDREHLTRNTARIRQELGAVCYEPNVLGYLGPRKMTVILPGTNSQNQRINVQPLNEQESLLSRYQRGDKQGLLLLHNKTPSWDKENGVYTLNFHGRVTRASVKNFQIVDPKHQEHLVLQFGRVGPDTFTMDFCFPFSPLQAFSICLSSFN
# B6: TSHZ1 (protein, UniProt Q6ZSZ6 1-1077, looked up)
# Teashirt homolog 1: MPRRKQQAPRRSAAYVPEEELKAAEIDEEHVEDDGLSLDIQESEYMCNEETEIKEAQSYQNSPVSSATNQDAGYGSPFSESSDQLAHFKGSSSREEKEDPQCPDSVSYPQDSLAQIKAVYANLFSESCWSSLALDLKKSGSTTSTNDASQKESSAPTPTPPTCPVSTTGPTTSTPSTSCSSSTSHSSTTSTSSSSGYDWHQAALAKTLQQTSSYGLLPEPSLFSTVQLYRQNNKLYGSVFTGASKFRCKDCSAAYDTLVELTVHMNETGHYRDDNRDKDSEKTKRWSKPRKRSLMEMEGKEDAQKVLKCMYCGHSFESLQDLSVHMIKTKHYQKVPLKEPVPAITKLVPSTKKRALQDLAPPCSPEPAGMAAEVALSESAKDQKAANPYVTPNNRYGYQNGASYTWQFEARKAQILKCMECGSSHDTLQQLTAHMMVTGHFLKVTTSASKKGKQLVLDPVVEEKIQSIPLPPTTHTRLPASSIKKQPDSPAGSTTSEEKKEPEKEKPPVAGDAEKIKEESEDSLEKFEPSTLYPYLREEDLDDSPKGGLDILKSLENTVSTAISKAQNGAPSWGGYPSIHAAYQLPGTVKPLPAAVQSVQVQPSYAGGVKSLSSAEHNALLHSPGSLTPPPHKSNVSAMEELVEKVTGKVNIKKEERPPEKEKSSLAKAASPIAKENKDFPKTEEVSGKPQKKGPEAETGKAKKEGPLDVHTPNGTEPLKAKVTNGCNNLGIIMDHSPEPSFINPLSALQSIMNTHLGKVSKPVSPSLDPLAMLYKISNSMLDKPVYPATPVKQADAIDRYYYENSDQPIDLTKSKNKPLVSSVADSVASPLRESALMDISDMVKNLTGRLTPKSSTPSTVSEKSDADGSSFEEALDELSPVHKRKGRQSNWNPQHLLILQAQFASSLRETTEGKYIMSDLGPQERVHISKFTGLSMTTISHWLANVKYQLRRTGGTKFLKNLDTGHPVFFCNDCASQFRTASTYISHLETHLGFSLKDLSKLPLNQIQEQQNVSKVLTNKTLGPLGATEEDLGSTFQCKLCNRTFASKHAVKLHLSKTHGKSPEDHLIYVTELEKQ
# B7: TWIST1 (protein, UniProt Q15672 1-202, looked up)
# Twist-related protein 1: MMQDVSSSPVSPADDSLSNSEEEPDRQQPPSGKRGGRKRRSSRRSAGGGAGPGGAAGGGVGGGDEPGSPAQGKRGKKSAGCGGGGGAGGGGGSSSGGGSPQSYEELQTQRVMANVRERQRTQSLNEAFAALRKIIPTLPSDKLSKIQTLKLAARYIDFLYQVLQSDELDSKMASCSYVAHERLSYAFSVWRMEGAWSMSASH
# Tested on: HEK293FT cells transfected with TF library
# Test: Screening of TF condensates based on fluorescent puncta
# Assay type: cell-based
# Conditions: Figure 1B numerical data; TF library screen, one value per transcriptional factor
# How it was run: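 HEK293FT, PEI transfection of TF library, 60 h; ±glucose 12 h; 4% PFA fix, 0.05% Triton X-100 permeabilization, 5% BSA block; anti-Flag/anti-GAL4 overnight at 4 °C, Alexa 488 secondary 1 h; high-content imaging, 50 fields/well.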
row,Molecule,Z score of condensed fraction
1,B1,-0.959
2,B2,-0.4698
3,B3,0.5078
4,B4,-1.212
5,B5,-0.5004
6,B6,-1.076
7,B7,-0.8032

# From paper PMC11574045, “A cofactor-induced repressive type of transcription factor condensation can be induced by synthetic peptides to suppress tumorigenesis” (The EMBO Journal, 2024)
